In the DeepSol protein solubility set:

Experiment: soluble on expression in E. coli; label from the status in PepcDB or PDB records
In the case of “MTHYKDDSYALHTDLYQINMAYTYWKDGIHNRRSVFDLYFRKLPFENGYAVFAGLEKIVEYIENFSFTESDIAYLAELQFEEEFLHYLQNMKFTGTIRSMQEGEVVFNNEPLLRVDAPLGEAQIIETALLNIVNYQTLIATKAARMKHAASNDELLEFGTRRAHEFDAALWGTRAAFIGGFSSTSNVRAGKRFGIPVAGTHAHSFVQAYRDEYVAFKKYAETHKKCVFLVDTYDTLKSGVPNAIRVAKEFGDRIDFYGIRLDSGDMAYLSKKARKLLDEAGFTNTKIIASSDLDEYTIMHLKSQGAKIDVWGVGTKLITSFEQPALGAVYKLVAIEDTDGKLNDTIKISSNPEKITTPGLKRIYRIINRVNDHAEGDYIALDSEEPGKEERLKMFHPVHTYISKFVTNFEARELHKDIFVNGERTYELPSILDIQKYNEQSLSLFWEEYMRTLNPEEYPVDLSQECWDHKMNYIQTVREQVEKNIQK”, the “soluble on expression in E. coli” value is reported as “not soluble”.
In the case of “MSLDIKRVLKAAPTKMRSREPLQQLWTPWGERIEHEWLSARAGNKAFNPAEEGERTLDEGRTPILGEHPRPTMVRDNCTMLNGWWDYAIVSIPEDETAPKWRKTAAMLTRDEAVRAVKETAIPQTFDGKILVPFSPESALSGVHQTIYPDNLLWYRTVVHPVTLGGEETVRQIGDANRLILHFEAVDYVCACYVNGQLAGTHVGGYLPFDVDISAFIDPDDAFEIALCVYDPNDSGTQLRGKQKIEREGIWYTAQSGIWQSVWLEIVPEAYLRTLTLKGASDGKLFVRAEIGGDKPNAKLHIVVTDPADGTVVADETLPAGVRKVRAEIATAAEHLWSPADPYLYDVRAELRYGSAKPAETAGDAAVVQSQPMDVVSSYCAFRSVEIKPDTKGVARFHLNGKPLFVKGVLDQGYWPDGLMTAPDDEALTHDITAMKNAGFNMLRKHIKIESARWYYHCDRLGMLVWQDAVSGGGTDGEYNAWTTNRKPTLIRSTWNKFRDDTAKHFTALGADDPIYRRDWSRTCDAMVHMLGGHPSIVTWTLFNEGWGQFDACDATERIHALDPTRPIDATSGWYDQHCGDYHSVHNYFRPLEIYPDKGPLRGYVAEFEKKHRRRRRAAHYVVLPVARHGVRAFVISEFGGLAQLVPEHAAVSRAYGYGEYDSIDDWRAAVRSVLASAAALESRGLAGYVYTQVSDVEEELNGLLTYDRRVDKFAEEGHHHHHH”, the “soluble on expression in E. coli” value is reported as “soluble”.
With “MSLAQHPTGIHHLAFMAGDIKKHIAFFSDVMGCPLVALFDMHGVPGGLHAFLRMNDHSYFSIVQLPDVDKIPVQLGVTHAGNGARPSAPGTLQHLAFRADTEDALLALRDRIRSHGINVLGPIDHGMCRSIYFAGPDQMTLEVACSSETIDEGHHHHHH” the “soluble on expression in E. coli” value was “soluble”.
With “MAKTGMYVGLDIGTTSVKVVVAEYIEGQMNIIGVGNAKSDGLNRGIVVDIDQTVQAIQRAVRQAEEKAGIQIKSVNVGLPANLLEVESCQGMIAVSSESKEITDEDVRNVASAALVRSTPPERQIVAILPQDFTVDGFEGIKDPRGMLGVRMEMFGVVYTGPKTIIHNIRKCVEKAGLGINELVITPLALTETILTDGEKDFGTIVIDMGGGQTTTSVIHDKQLKFTHVNQEGGEFITKDISIVLNTSFNNAEALKINYGDAYPERTSANEEFPVDVIGKSEPVRVDERYLSEIIEARVEQILRKSKEVLDEIDAFELPGGVVLTGGAASMPGIVDLAQEIFEANVKLYVPNHMGLRNPVFANVISIVEYSAQLNDIYHIAKYAIPGEKSKPAQSVAVQQEVRYDTYAEQPQEEYEEFNERESGEKVTGKIKDFFSNIFD” the “soluble on expression in E. coli” value was “not soluble”.
With “MMLVTAHDMPIFAPTCNLMTISHQPLPSHLVRKSSSLHIAASTIHVKFIVRSHVIKMIAGIFLVCECHAKGGANSITASKQSPIIADLYDMKILIVFCLSYTNLIASKVKKQ” the “soluble on expression in E. coli” value was “soluble”.
With “MSKIYVLDTNVLLQDPNAIFSFEENEVVIPAVVLEEVDSKKRYMDEVGRNARHVSKLIDALRQKGRLHEHVPLDTGGTLRIELNHRSFHQLQEIFIEKTNDNRILAVAKNLSLEEETKENGRPVILVSKDVLVRVKADAIGLLAEDFLNDRVVDNDEMY” the “soluble on expression in E. coli” value was “not soluble”.
In the case of “STNVFIMGHVNPDIDCIGGAIGLYSVLSSKVDGDVHIVLDDTSSSVEGIVNRLVENYDEYKNVFMRSSDCIELIDQGSILILDDVNSRNYVLSEKILEEISKVVVIDHHRRAANYIKDTILSYIESYASSTSELVTEMIQYMDENHKLKPIEAEALLAGIVVDTKNFSFKTGVRTFEAAAFLRKNGADTIEIKKLFSNDL”, the “soluble on expression in E. coli” value is reported as “not soluble”.
For “MSLGGQEKEHLTMRAEEWHLVSGAVSMRGRRPTDEDTMVVVAAIHSHRNIRIQALFDGHGGPNVAQFAANRLQSLFARQKGYSRRDLEKICHALDEELKKNNVRRGGSTGVIMVIEKVEKPEKVIVRGRQILKDPGLTPLKEHYRKQAGPAEEITLGTSETPFRLHVANVGDSRAMLVLEDEYYEMTKDHKPEDPEEKSRILRAGASVTDSEGTSVPRIDGSLALSRSFGDFSLKQGSGSTPDAVISTPDVRQFYAGYNDLLVLFCDGVTEPVASSWPQVAAYTREIFVQTGDVVKTAVALAEQAYSAGSQDNLSAVVTRLRPDPAEEGHHHHHH”, the “soluble on expression in E. coli” value was “soluble”.
In the case of “MAIKDAIEKIVSYFDADEVTDHEDVAKERPVKVQKTEQTPSQQQRKPERPQETVPPRRQHIKSDVQETQVLRSLSLSRSQVNQGSQQMNTTKTTIAIKYPKKYEDAQEIVELLIENECVLIDFQYMLEAQARRCLDFIDGASKVLTGNLQKVGSSMYLLTPINVVVDIEEIGLSHGNQESTFDFDMKRRLEHHHHHH”, the “soluble on expression in E. coli” value is reported as “not soluble”.
For “MGSDKIHHHHHHMGAGELLQDWRVHALRIEDEVSRVVIGQPQTIRLITVALFARGHVLLEGGVGVGKTTVLRAFARVVGGEFERVEGTIDLMPGDLVYHTYVDAEGRPRIDPGPLLRHGERLTTFFFNEINRARPQVQSLLLRAMAERSVWAFDREYRFPHMTVFADRNKVEKEETFELASAARDRFLFELGMPTPTEPDVRRSLVFDAAFHDVDSLLARLPPAIVQWEQLNQVGAAIQESVQSSETIERYVLDIWQATETPQRFGIALDGVDMDRLILAGASPRGMSALLRAARVVAWLAGRSHLVPEDIHAVLMPALGHRVFFTPIYELRRQELAEALMTQIMNRLAVP”, the “soluble on expression in E. coli” value was “not soluble”.
With “MAHHHHHHMPHEDHKKYRVQREDLPAMPHFSDFNDPRFCGTTNKQKNGILAYYQWLHCIGNWGEEHSMCKKMRWYVERMMHETWLEKWEEKRALGHFDHTVLYGVKPWKEFEPLYQPVKKNRKGAYEYWLDRDFEPLYDVDAADWRERAPILHDMFVLGKKPVSE” the “soluble on expression in E. coli” value was “soluble”.
With “MGSDKIHHHHHHMNIQKVTFRNADMAWDMAALILLPEGFDESKRYPTMVSVHPFGSCKEQTSSAVYGKALAELGYVVIAFDASFQGESGGSPRYVEDPSQRVEDISRVIDYAVSLPYVDEDRIGGLGICGGGAYIFSSALTEKRLKAVVGITPVNLGRLFREGFSQYNPIGALEAMATQRTAEARGAELQVNELLPPSPEFAKQNGMTERDLFEATDYYKTPRGQAEGGATRMLFSHAQKTLSWDAFAFVETLMTQPMMAVVGQKLGAFGAYRDGHEVYGRSIVSKDRQLVELQDWSHYDLYDHPQAVSLAMEKIGPFLSQHL” the “soluble on expression in E. coli” value was “not soluble”.
With “MSLALNPAVAPIKSIEFIPVNYQASNWSQNTVVVKVTDENGVYGLGEADGSPDAILAYANIETEHKWLTNITEKAIGRLPIEINAIWDAMYDATQWQGMRGLGMFALSGIDMALYDLAGKQLGVPAYQLLGGTNKDKVHPYLTLYPAIPVDASLDVAIKGYAPLLEKAKAHNIRAVKVCVPIKADWSTKEVAYYLRELRGILGHDTDMMVDYLYRFTDWYEVARLLNSIEDLELYFAEATLQHDDLSGHAKLVENTRSRICGAEMSTTRFEAEEWITKGKVHLLQSDYNRCGGLTELRRITEMATANNVQVMPHNWKTGITSAAAIHYQFAVGNAPYFEYVHPEFCDGELRKYLVTPEAELVDGGFAKPTAPGLGIDLNQEFLASLEGHHHHHH” the “soluble on expression in E. coli” value was “soluble”.
With “VSIDVPERADLEQVRGRWRNAVAGVLSKSNRTDSAQLGDHPERLLDTQTADGFAIRALYTAFDELPEPPLPGQWPFVRGGDPLRDVHSGWKVAEAFPANGATADTNAAVLAALGEGVSALLIRVGESGVAPDRLTALLSGVYLNLAPVILDAGADYRPACDVMLALVAQLDPGQRDTLSIDLGADPLTASLRDRPAPPIEEVVAVASRAAGERGLRAITVDGPAFHNLGATAATELAATVAAAVAYLRVLTESGLVVSDALRQISFRLAADDDQFMTLAKMRALRQLWARVAEVVGDPGGGAAVVHAETSLPMMTQRDPWVNMLRCTLAAFGAGVGGADTVLVHPFDVAIPGGFPGTAAGFARRIARNTQLLLLEESHVGRVLDPAGGSWFVEELTDRLARRAWQRFQAIEARGGFVEAHDFLAGQIAECAARRADDIAHRRLAITGVNEYPNLGEPALPPGDPTSPVRRYAAGFEALRDRSDHHLARTGARPRVLLLPLGPLAEHNIRTTFATNLLASGGIEAIDPGTVDAGTVGNAVADAGSPSVAVICGTDARYRDEVADIVQAARAAGVSRVYLAGPEKALGDAAHRPDEFLTAKINVVQALSNLLTRLGA” the “soluble on expression in E. coli” value was “not soluble”.
With “MIGRNRYAMLTVDTEALPKRAVQDHIKRLMWGEHDGGCAGIREMCAIGNECGVKQVFFVDMCGAYACLDQTLDVVRWLDQDGQDVQLHAHPEYLPEQFWKEHGFKYRPRFLNQYGIEKATFTIKYFGKLISDLTGKPLRAFRAGSFRWNADTLRALQEAGVSLSFNNSMNARLKGQCTYSEPTNHSYLWSNGVIEVPVTERKFFPLFGKEWWGRLQFPVGDWLGSPPWRVLRPYTVGADPSFLVVLLHSWSLLYWDKDGYAVYRDDKRIEDYRKLVRRLARDYDIITTADFLDLYACGKIKTTHTADLSLAEFKAVKKLEHHHHHH” the “soluble on expression in E. coli” value was “not soluble”.
For “MFGCITMSENNQCVIVGIAGASASGKSLIASTIYNELRAKVGDHQIGVITEDCYYKDQSHLSMEERVKTNYDHPSALDHDLLCQHLQMLARGEAVEVPEYSYTEHTRTEQTTTMTPKKVIILEGILLLTDPRLRDLMHATVFMDTPLDICLLRRVKRDVQERGRTMESVLKQYQETVRPMFMQFIEPSKQYADIIVPRGGKNRIAIDVLKAHIAKLLKS”, the “soluble on expression in E. coli” value was “not soluble”.
In the case of “MASFKVKPEHTGPPDLYYNETEAAKYASNSHITAIQHEMAERALELLALPEGKSGFLLDIGCGTGMSSEVILDAGHMFVGVDVSRPMLEIARQDEDLESGDFIHQDMGLGMPFRPGSFDGAISISAIQWLCHANASDENPRKRLLFFFQSLYGCLGRGSRAVFQFYPENDEQCDLIMGQAHKAGFNGGLVVDFPEAAKRKKVYLVLMTGGVVQLPQALTEDGEESRTQIDNAGRRFVWNSRKNEKVAKGSKAWIEAKRQRQIKQGRDVRHESKYSGRKRKTKF”, the “soluble on expression in E. coli” value is reported as “not soluble”.
With “MASQSQGIQQLLQAEKRAKDKLEEAKKRKNKRLRQAKEEATADIDQYRLKREADFRRIQTSVMGSQGNLAVKIEEQTVEKIQFYSSSYNKYKEGVLKELLDLAYNIKPELHTNYKYKI” the “soluble on expression in E. coli” value was “not soluble”.
For “MPASVTHVIFDFDGLLVDTESAYTEANMELLRKYGHVFTMDLKRRQMGKRHDESIRWLINELKIGDLVTPEEYSRQYDELLIEMFKRSPAMPGAEKLVRHLLHTGVPVALCTGSCSRTFPTKLDNHKDWVNMIKLQVLSGDDPEVKHGKPHPDPFLVTMKRFPQVPESADKVLVFEDSYNGVLSALDAGMQCVMVPERSIFDPDSDPEFKNRVTVILNSLEQFKPEDFGLPPY”, the “soluble on expression in E. coli” value was “not soluble”.
In the case of “QHLNALMNKEILGKKPGKKKKDKTKRPVLYVIDFSGDIKATQVEQLRDEVTSVLSIAKPEDEVLVRLESPGGAVNGYGLAASQLQRIRDKKIPLTVSIDKMAASGGYLMACVANKIIAAPFAIIGSIGVVAQIPNFHRWLKKNNIDVELLTAGEYKRTLTLFAENTEKGRKKFQEDLEKIHTAFREYVLKNRSQLDIDKVATGEHWIAKDAFDLRLVDKLATSDE”, the “soluble on expression in E. coli” value is reported as “not soluble”.
With “MTSDNKQEYTIHIFGQDITSQDGLFRLDEIRRVGIQIGKVEDNRSTEVARFMRTKAGRSLTNPENGFVKKINMGHLGTSWLADPVAAIEFGRWLDLGYGLAVTRAFVSMTSSATVQSAVASAEDIKPETKEFIQRHGTGLYIAGREVSQAEYSDYQAVTAGRCEWR” the “soluble on expression in E. coli” value was “not soluble”.
